The text below walks through data of the RNAGym collection of RNA variant scans (doi:10.7554/elife.90254).

To fix the notation:
B1: LINE1-full (parent)
chain: UACGUAGGUGGUUUUCCCCUGAUAGUGCUAAGGGGGCCUGGAAGUUUGGACUGGGCAGAGCUCAACACAGCGUGGCAAAGUGGCUGUGGCUAGACUGCCUCUCUGGAUUCCUCGUCACUCAGCAGGGCAUCUCUGAGAGAAAUGCC

The series covers variants of B1. Nature of the series: self-cleavage, relative activity (ratio to wild type); higher = more cleavage; in vitro, sequencing; the parent is a self-cleaving ribozyme.
For U85A U119C, the self-cleavage came to 0.09.
G89C G144A: the self-cleavage was 0.05.
The same measure for U87C U115C: 0.31; for U87C U115A: 0.17.
The value for G86A G126U was 0.02.
The value for G83A U85G was 0.1.
As for G83A U85C, the self-cleavage was determined as 0.09.
The same measure for U87C C118U: 0.22.
Consider G89A U130C, for which the self-cleavage amounted to 0.02.
The same measure for U87A U132A: 0.07; for U87A U132G: 0.1.
With U87A U132C, the self-cleavage amounted to 0.07.
U87A A117U: the self-cleavage is 0.04.
Consider U87C U96C, for which the self-cleavage was determined as 0.27.
For the variant U87A A138U, the self-cleavage was 0.03.
As for G88A U119A, the self-cleavage is 0.06.
For the variant C90U U104C, the self-cleavage worked out at 0.04.
The same measure for U85A U100C: 0.21; for U85G A142G: 0.1; for U87C C111U: 0.23.
The same measure for G89U A92U: 0.07; for C84G A94U: 0.13; for G88A A92G: 0.02.
The same measure for U85G U112A: 0.26.
With U87C C145G, the self-cleavage was 0.32.
The same measure for U87C U130C: 0.35; for U87C U130A: 0.19; for U85C U108A: 0.28.
The same measure for G88A U102A: 0.04; for G88A U102C: 0.06; for C90U U108A: 0.05.
The same measure for U85A U130C: 0.1.
On to U85A U130A, for which the self-cleavage was 0.1.
The same measure for U85C A129G: 0.16; for U85C A129U: 0.19; for C84U U143C: 0.1.
The same measure for G89A U109C: 0.04.
The value for G88A U112A was 0.08.
U87C C113U: the self-cleavage was found to be 0.
As for G86U U96G, the self-cleavage stood at 0.13.
With U85A C116A, the self-cleavage was found to be 0.
The same measure for U85A C116U: 0.11.
Turning to C84U A138G, the self-cleavage was found to be 0.13.
The value for G82U U143C was 1.72; that for C84A U130C was 0.15; that for G86A A136G was 0.09.
The value for G86A A136U was 0.06; that for U85G A136G was 0; that for G83A A94U was 0.24.
G89A A94G: the self-cleavage was 0.07.
Take C90A U134A: the self-cleavage was found to be 0.04.
Take C84G A129G: the self-cleavage was determined as 0.2.
The value for C84U G89A was 0.04; that for G83A A138G was 0.73.
The value for C84U U112A was 0.11.
The same measure for U87G A117C: 0.31.
Turning to G83U A124G, the self-cleavage amounted to 0.36.
U85C G97U: the self-cleavage was 0.02.
The value for U85C U109G was 0.
Consider U87A C145U, for which the self-cleavage stood at 0.1.
The same measure for G88C A141G: 0.14.
With U87A U119G, the self-cleavage worked out at 0.07.
The value for U85C C90A was 0.07.
With G86U A107G, the self-cleavage worked out at 0.02.
U87C C98A: the self-cleavage was 0.09.
The value for U87C C98U was 0.02; that for U85A G127A was 0.06; that for C84G was 0.09.
The value for C84U was 0.14.
The same measure for C84A: 0.1; for U87C C146U: 0.34; for G89A A136G: 0.04.
In the case of G88U, the self-cleavage was 0.05.
The same measure for G88C: 0.11.
On to G88A, for which the self-cleavage stood at 0.04.
In the case of U87C G126U, the self-cleavage stood at 0.3.
The value for G82U U134G was 1.3; that for U85C U119C was 0.28.
The value for U85C U119A was 0.25; that for C84U A129G was 0.18; that for U87A G122A was 0.09.
The same measure for U85A U109G: 0.05.
Consider G83C A117G, for which the self-cleavage is 0.76.
For G86U G105A, the self-cleavage worked out at 0.06.
Take U85A G105A: the self-cleavage stood at 0.04.
In the case of C84G C146A, the self-cleavage worked out at 0.1.
For G89A A138U, the self-cleavage is 0.05.
The same measure for U85C U130C: 0.23.
Consider U85C U130A, for which the self-cleavage came to 0.35.
The same measure for U87C C99U: 0.13; for U87C C131U: 0.15.
The same measure for U85G U130C: 0.24.
The same measure for G83A U143C: 0.71; for U85A U112C: 0.04.
In the case of G83U U112C, the self-cleavage worked out at 0.85.
The value for G89A A141G was 0.02; that for G89A A141U was 0.02.
C84U A94G: the self-cleavage is 0.04.
In the case of C84A U108A, the self-cleavage was 0.12.
The same measure for U85A C99G: 0.05; for U85G U104C: 0.
The value for U87C G114U was 0.19.
As to U87C G114A, the self-cleavage was 0.23.
With G82A U119A, the self-cleavage was 1.96.
The value for U87C U91C was 0.31.
On to U87C U91A, for which the self-cleavage is 0.2.
The same measure for C90U A124U: 0.02; for C90U A124G: 0.02.
The same measure for G88A G135A: 0.08; for C84A A141G: 0.09.
The value for G83A U112C was 0.54.
As for U85C C113A, the self-cleavage was 0.08.
The same measure for U85C C113U: 0.1; for U87A G106A: 0.06; for U87A G106C: 0.08.
The same measure for C90U A141G: 0.03; for U87C C120U: 0.13.
The value for G89A A140U was 0.02; that for G86A A124U was 0.05.
Regarding G86A A124C, the self-cleavage turned out to be 0.03.
The same measure for U85C G86U: 0.07.
The same measure for C84G U100C: 0.07; for U87G U119G: 0.3.
The value for G83A U104C was 0.95.
In the case of G86U A124G, the self-cleavage turned out to be 0.07.
With U85A U96G, the self-cleavage was found to be 0.15.
In the case of G86A A129G, the self-cleavage worked out at 0.05.
The value for U87C G105A was 0.14; that for U87A U104A was 0.06.
The same measure for U87A U104C: 0.11; for U85A A124C: 0.08.
The value for U85A A124G was 0.04.
Take U87A C98U: the self-cleavage came out at 0.05.
The same measure for C84U U134C: 0.19; for U85G G144A: 0.21; for G82A U143C: 2.03.
As for U85G A141G, the self-cleavage stood at 0.1.
Take G86A U112C: the self-cleavage is 0.08.
The same measure for U87A C123U: 0.06.
The value for C90U U100C was 0; that for U87C A141G was 0.24; that for G88U A140G was 0.04.
The same measure for C90G U132C: 0.05; for G83U: 0.86; for G83C: 0.87.
Consider G83A, for which the self-cleavage was determined as 0.86.
The same measure for G89A U115C: 0.04.
Regarding U85C G139U, the self-cleavage was found to be 0.22.
The value for U87C U108C was 0.24; that for U87C U108A was 0.15; that for U85A A142C was 0.14.
The same measure for U87G A140U: 0.13; for G83U U85A: 0.07; for G86A A140U: 0.09.
Turning to G83A U119A, the self-cleavage is 0.85.
The value for G83A U119C was 1.51.
The value for G88U G126A was 0.
The value for U87C A92G was 0.1; that for U87A U102C was 0.08; that for G88A A141G was 0.08.
Take G86A U96C: the self-cleavage amounted to 0.05.
The same measure for G89C A140U: 0.05.
The value for U87G A142G was 0.25.
Regarding G89A A117G, the self-cleavage was determined as 0.05.
The same measure for U87A U130C: 0.08; for U87A U130A: 0.09; for U85G U102C: 0.55.
